Measured values taken from patent US20210388081A1 (Memorial Sloan Kettering, published 2021).

T1: FcRL1, overexpressed on 3T3 cells (UniProt Q96LA6 17-429, limits assumed)
T1 construct: whole, on cells
T1 sequence (looked up): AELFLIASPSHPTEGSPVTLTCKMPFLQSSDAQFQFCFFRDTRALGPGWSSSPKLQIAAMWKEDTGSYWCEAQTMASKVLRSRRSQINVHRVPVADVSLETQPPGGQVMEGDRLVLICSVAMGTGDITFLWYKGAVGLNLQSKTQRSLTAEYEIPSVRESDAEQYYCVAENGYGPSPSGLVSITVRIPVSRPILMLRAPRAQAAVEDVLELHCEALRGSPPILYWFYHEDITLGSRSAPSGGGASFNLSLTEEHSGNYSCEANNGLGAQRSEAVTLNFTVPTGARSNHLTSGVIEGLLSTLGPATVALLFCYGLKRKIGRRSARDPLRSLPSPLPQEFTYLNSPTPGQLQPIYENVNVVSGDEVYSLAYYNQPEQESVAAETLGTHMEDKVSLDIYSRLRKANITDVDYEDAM

T2: FcRL3, overexpressed on 3T3 cells (UniProt Q96P31 18-734, limits assumed)
T2 construct: whole, on cells
T2 sequence (looked up): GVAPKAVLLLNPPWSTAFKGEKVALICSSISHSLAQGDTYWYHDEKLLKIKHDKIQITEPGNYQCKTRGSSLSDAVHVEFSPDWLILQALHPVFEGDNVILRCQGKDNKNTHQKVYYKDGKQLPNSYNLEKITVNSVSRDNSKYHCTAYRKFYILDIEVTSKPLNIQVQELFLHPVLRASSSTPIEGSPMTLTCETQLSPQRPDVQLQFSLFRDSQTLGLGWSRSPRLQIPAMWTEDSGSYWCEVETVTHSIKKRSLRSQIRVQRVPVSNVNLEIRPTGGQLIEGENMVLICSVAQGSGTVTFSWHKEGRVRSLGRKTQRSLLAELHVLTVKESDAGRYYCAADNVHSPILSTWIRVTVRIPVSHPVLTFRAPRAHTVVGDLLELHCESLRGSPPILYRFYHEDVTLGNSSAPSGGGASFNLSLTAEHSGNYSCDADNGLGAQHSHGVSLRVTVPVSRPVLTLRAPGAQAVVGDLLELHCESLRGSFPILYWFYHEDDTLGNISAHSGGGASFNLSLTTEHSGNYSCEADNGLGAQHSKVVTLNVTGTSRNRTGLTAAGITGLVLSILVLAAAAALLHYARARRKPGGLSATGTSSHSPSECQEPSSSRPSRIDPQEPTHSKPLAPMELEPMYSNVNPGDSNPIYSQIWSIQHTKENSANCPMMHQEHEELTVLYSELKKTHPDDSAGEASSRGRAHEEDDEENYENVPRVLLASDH

B1: ET200-012 (scFv)
scFv: QSVLTQPPSVSAAAGQKVTISCSGSDSNIGNNYVSWYQHLPGTAPKLLIYDVKNRPSGIPDRFSGSKSGSSATLGIAGLQPGDEADYYCGTWDSRLDAYVFGTGTKVTVLGSRGGGGSGGGGSGGGGSLEMAQMQLVQSGAEVKKPGASVKVSCKTSGFPFNIFGITWVRQAPGQGLEWMGWISGYNGNTDYPQKFQGRVTMSTDTSTSTAYMELRNLKSDDTAVYYCARGAYGGMDTWGQGTLVTVSSTSGQAGQHHHHHHGAYPYDVPDYAS
notes: screened as phage clone; entry is VL-linker-VH-His tag-HA tag
B2: ET200-016 (scFv)
scFv: SSELTQDPAVSVALGQTVKITCQGDSLTDYHATWYQQKPGQAPVAVIYATNNRPTGIPDRFSGSSSGNTASLTITGAQAEDEADYYCNSRDSGTDEVLFGGGTKLTVLGSRGGGGSGGGGSGGGGSLEMAEVQLVETGGGLVKPGGSLRLSCAASGFTFSSYSMNWVRQAPGKGLEWVSSISSSSSYIYYADSVKGRFTISRDNAKNSLYLQMNSLRAEDTAVYYCARGQGYDYWGQGTLVTVSSTSGQAGQHHHHHHGAYPYDVPDYAS
notes: as for B1
B3: ET200-020 (scFv)
scFv: QSVVTQPPSVSAAPGQKVTISCSGSTSNIGNNDVSWYQQLPGTAPKLLIYDNNKRPSGIPDRFSGSKSGTSATLGITGLQTGDEADYYCGTWDSSVSASWVFGRGTKLTVLGSRGGGGSGGGGSGGGGSLEMAQVQLVQSGAEVKKPGASVKVSCKASGYTFTSYGISWVRQAPGQGLEWMGWISAYNGNTNYPQKLQGRVTMTTDPSTSTAYMELRSLRSDDTAVYYCARSMTSFDYWGQGTLVTVSSTSGQAGQHHHHHHGAYPYDVPDYAS
notes: as for B1
B4: ET200-023 (scFv)
scFv: LPVLTQPPSVSVAPGKTARITCGGNNIGSKSVHWYQQKPGQAPVLVVYADSDRPSGIPERFSGSNSGNTATLTISRVEAGDEADYYCQVWDSSSYHNYVFGTGTKVTVLGSRGGGGSGGGGSGGGGSLEMAEVQLVQSGAEVKKPGASVKVSCKASGYTFTSYGISWVRQAPGQGLEWMGWISAYNGNTNYAQKLQGRVTMTTDTSTSTAYMELSSLRSEDTAMYYCARYWGFGVSDRWGQGTLVTVSSTSGQAGQHHHHHHGAYPYDVPDYAS
notes: as for B1
B5: ET200-014 (scFv)
scFv: SYVLTQPPSVSVAPGKTARITCGGNNIGSKSVHWYQQKPGQAPVLVIYYDSDRPSGIPERFSGSNSGNTATLTISRVEAGDEADYYCQVWDSSSDHYVFGTGTKVTVLGSRGGGGSGGGGSGGGGSLEMAEVQLVETGGGLVQPGGSLRLSCAASGFTFSSYAMSWVRQAPGKGLEWVSAISGSDGSTYYADSVKGRFTISRDNSKNTLYLQMNSLRDEDTAVYYCARSHEANLVGDWWGQGTLVTVSSTSGQAGQHHHHHHGAYPYDVPDYAS
notes: as for B1
B6: ET200-011 (scFv)
scFv: QSVVTQPPSVSAAPGQRVTISCSGSSSNISIYDVSWYQQLPGTAPKLLIYGNNKRPSGIADRFSGSTSGTSATLGITGLQTGDEADYYCGTWDDSLSGGVFGGGTKLTVLGSRGGGGSGGGGSGGGGSLEMAQMQLVQSGAEVKKPGSSVKVSCEASGGTLSSYAINWVRQAPGQGLEWMGGIIPMFGTAHYAQKFQGRVTITADESTKTAYMELSSLRSEDTAVYYCARGVHYASFDHWGQGTLVTVSSTSGQAGQHHHHHHGAYPYDVPDYAS
notes: as for B1
B7: ET200-021 (scFv)
scFv: QSVLTQPPSVSAAPGQKVTISCSGSNSNIGNNYVSWYQQLPGTAPKLLIYDNNKRPSGIPDRFSGSRSGTSATLGITGLQTGDEADYYCGTWNTTVTPGYVFGTGTKVTVLGSRGGGGSGGGGSGGGGSLEMAEVQLVQSGAEVKKPGASVKVSCKASGYTFTSYGISWVRQAPGQGLEWMGWISAYNGNTNYAQKLQGRVTMTTDTSTSTAYMELRSLRSDDTAMYYCARSVYDLDTWGQGTLVTVSSTSGQAGQHHHHHHGAYPYDVPDYAS
notes: as for B1
B8: ET200-018 (scFv)
scFv: QAVLTQPPSTSGTPGQRVTISCSGSSSNIGRNGVNWYQQLPGAAPKVLIYNDNQRPSGVPDRVSGSQSGSSGTLAIDGLRSEDEADYYCAAWDDSLHGVVFGGGTKLTVLGSRGGGGSGGGGSGGGGSLEMAQVQLVQSGAEVKKPGASVKVSCKVSGYTLNELSMHWVRQAPGKGLEWMGGFDPEDGETIYAQKFQGRVTMTEDTSTDTAYMELSSLRSEDTAVYYCARGGYGDSWGQGTLVTVSSTSGQAGQHHHHHHGAYPYDVPDYAS
notes: as for B1
B9: ET200-015 (scFv)
scFv: QSVVTQPPSVSVAPGKTARITCGGNNIGSKSVHWYQQKPGQAPVLVIYYDSDRPSGIPERFSGSNSGNTATLTISRVEAGDEADYYCQVWDSSSDVVFGGGTKLTVLGSRGGGGSGGGGSGGGGSLEMAEVQLVQSGAEVKKPGASVKVSCKASGYTFTSYGISWVRQAPGQGLEWMGWISAYNGNTNYAQKLQGRVTMTTDTSTSTAYMELRSLRSDDTAVYYCARWGGFGAVDHWGQGTLVTVSSTSGQAGQHHHHHHGAYPYDVPDYAS
notes: as for B1
B10: ET200-013 (scFv)
scFv: QSVVTQPPSVSGAPGQRVTISCTGSTSNIGAGYDVHWYQQLPGTAPKLLIYTNNFRPSGVPDRFSASKSGTSASLAITGLQAEDEADYYCGTWDSSLSAVVFGGGTKLTVLGSRGGGGSGGGGSGGGGSLEMAEVQLVESGTEVKKPGASVKVSCKASGYMFTSYGLNWVRQAPGQGLEWMGWISANNGKTNYAKKFQDRVTMTRDTSTSTGYMELRSLRSDDTAVYYCARHIGGSYFDRWGQGTLVTVSSTSGQAGQHHHHHHGAYPYDVPDYAS
notes: as for B1
B11: ET200-017 (scFv)
scFv: SYVLTQPPSVSVAPGKTARITCGGNNIGSKSVHWYQQKPGQAPVLVVYDDSDRPSGIPERFSGSNSGNTATLSISRVEAGDEADYYCQVWDSSSDHTVFGTGTKVTVLGSRGGGGSGGGGSGGGGSLEMAQVQLQQWGAGLLKPSETLSLTCAVYGGSFSGYYWSWIRQPPGKGLEWIGEINHSGSTNYNPSLKSRVTISVDTSKNQFSLKLSSVTAADTAVYYCARYYPGMDMWGQGTLVTVSSTSGQAGQHHHHHHGAYPYDVPDYAS
notes: as for B1
B12: ET200-019 (scFv)
scFv: NFMLTQPHSVSESPGKTVTISCTRSSGSIASNYVQWYQQRPGSAPTTVIYEDNQRPSGVPDRFSGSIDSSSNSASLTISGLKTEDEADYYCQSYDSSNSWVFGGGTKLTVLGSRGGGGSGGGGSGGGGSLEMAQVQLVQSGAEVKRPGSSVKVSCTASGGTFSSDAISWVRQAPGQGLEWMGGIIPMFGTANYAQKFQGRVTITADESTSTAYMELSSLRSEDTAVYYCAREGYYYPSAYLGSVLNDISSVYDEWGQGTLVTVSSTSGQAGQHHHHHHGAYPYDVPDYAS
notes: as for B1
B13: ET200-022 (scFv)
scFv: QSVVTQPPSVSAAPGQKVTISCSGSSSNIGNNYVSWYQQLPGTAPKLLIYDNNKRPSGIPDRFSGSKSGTSATLGITGLQTGDEADYYCGTWDSSLGAPYVFGTGTKVTVLGSRGGGGSGGGGSGGGGSLEMAEVQLVQSWGGSEQPGRSLRLSCAASGFTFDDYAMHWVRQAPGKGLEWVSGISWNSGSIGYADSVKGRFTISRDNAKNSLYLQMNSLRAEDTAMYYCARYRQVGSAYDSWGQGTLVTVSSTSGQAGQHHHHHHGAYPYDVPDYAS
notes: as for B1
B14: ET200-039 (scFv)
scFv: NFMLTQPHSVSESPGKTVTISCTRSSGSIASNYVQWYQQRPGSSPTTVIYEDNQRPSGVPDRFSGSIDSSSNSASLTISGLKTEDEADYYCQSYDSSNWVFGGGTKLTVLGSRGGGGSGGGGSGGGGSLEMAEVQLVQSGAEVKKPGSSVKVSCKASGGTFSSYAISWVRQAPGQGLEWMGGIIPIFGTANYAQKFQGRVTITADESTSTAYMELSSLRSEDTAVYYCARSNYYYNDYWGQGTLVTVSSTSGQAGQHHHHHHGAYPYDVPDYAS
notes: screened as phage clone; entry is VL-linker-VH-His tag-HA tag; also called ET200-39

Legend:
[1] = biological target: T1, FcRL1, overexpressed on 3T3 cells; test: phage clone on 3T3-FcRL1 cells
[2] = biological target: T2, FcRL3, overexpressed on 3T3 cells; test: phage clone on 3T3-FcRL3 cells

| Binder | binding result [1] | binding result [2] |
| --- | --- | --- |
| B1 | no binding | no binding |
| B2 | no binding | no binding |
| B3 | no binding | no binding |
| B4 | no binding | no binding |
| B5 | no binding | no binding |
| B6 | no binding | no binding |
| B7 | no binding | no binding |
| B8 | no binding | no binding |
| B9 | no binding | no binding |
| B10 | no binding | no binding |
| B11 | no binding | no binding |
| B12 | no binding | no binding |
| B13 | no binding | no binding |
| B14 | no binding | no binding |
